The labels stand for the following.
T1: nSR100 (Mus musculus, UniProt Q8BKA3)
T1 construct: host or cells: mouse N2A cells
T1 sequence (Q8BKA3 1-608): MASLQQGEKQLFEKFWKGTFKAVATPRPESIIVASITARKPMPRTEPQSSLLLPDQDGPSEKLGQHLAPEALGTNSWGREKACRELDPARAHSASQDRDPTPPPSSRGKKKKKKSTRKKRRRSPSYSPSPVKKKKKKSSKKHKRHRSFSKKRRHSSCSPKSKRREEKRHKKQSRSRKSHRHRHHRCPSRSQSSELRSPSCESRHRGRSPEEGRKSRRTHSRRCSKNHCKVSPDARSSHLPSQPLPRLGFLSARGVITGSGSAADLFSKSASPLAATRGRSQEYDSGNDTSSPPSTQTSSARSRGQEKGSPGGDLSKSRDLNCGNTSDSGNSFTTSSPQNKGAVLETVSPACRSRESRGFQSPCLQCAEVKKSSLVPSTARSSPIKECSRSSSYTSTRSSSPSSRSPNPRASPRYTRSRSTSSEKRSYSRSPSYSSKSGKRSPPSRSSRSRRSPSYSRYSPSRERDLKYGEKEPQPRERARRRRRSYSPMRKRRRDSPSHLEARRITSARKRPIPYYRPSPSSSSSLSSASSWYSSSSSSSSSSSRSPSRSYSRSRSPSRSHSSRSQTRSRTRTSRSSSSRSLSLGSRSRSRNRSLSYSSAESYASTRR

B1: Bcas2 (protein, UniProt Q9D287 2-225, looked up)
Pre-mRNA-splicing factor SPF27: AGTGLVAGEVVVDALPYFDQGYEAPGVREAAAALVEEETRRYRPTKNYLSYLTAPDYSAFETDIMRNEFERLAARQPIELLSMKRYELPAPSSGQKNDITAWQECVNNSMAQLEHQAVRIENLELMSQHGCNAWKVYNENLVHMIEHAQKELQKLRKHIQDLNWQRKNMQLTAGSKLREMESNWVSLVSKNYEIERTIVQLENEIYQIKQQHGEANKENIRQDF
B2: Sf3a2 (protein, UniProt Q62203 1-475, looked up)
Splicing factor 3A subunit 2: MDFQHRPGGKTGSGGVASSSESNRDRRERLRQLALETIDINKDPYFMKNHLGSYECKLCLTLHNNEGSYLAHTQGKKHQTNLARRAAKEAKEAPAQPAPEQVKVEVKKFVKIGRPGYKVTKQRDTEMGQQSLLFQIDYPEIAEGIMPRHRFMSAYEQRIEPPDRRWQYLLMAAEPYETIAFKVPSREIDKAEGKFFFLQFHFKMEKPPAPPSLPAGPPGVKRPPPPLMNGLPPRPPLPDALPPPPPGGLPLPPMPPTGPAPSGPPGPPQMPPPAPGVHPPAPVVHPPTSGVHPPAPGVHPPAPVVHPPTSGVHPPAPGVHPPTPGVHPPAPGVHPPAPGVHPPAPGVHPPTPGVHPPAPGVHPPAPGVHPPAPGVHPPPSAGVHPQAPGVHPPAPAVHPQAPGVHPPAPGIHPQAPGVHPQPPPGVHPAAPGVHPQPPGVHPSNPGVHPAPMPPMLRPPLPSDGPGNMPPPPPGN
B3: Luc7l (protein, UniProt Q9CYI4 1-371, looked up)
Putative RNA-binding protein …: MSAQAQMRALLDQLMGTARDGDETRQRVKFTDDRVCKSHLLDCCPHDILAGTRMDLGECTKIHDLALRADYEIASKERDLFFELDAMDHLESFIAECDRRTELAKKRLAETQEEISAEVSAKAEKVHELNEEIGKLLAKAEQLGAEGNVDESQKILMEVEKVRAKKKEAEEEYRNSMPASSFQQQKLRVCEVCSAYLGLHDNDRRLADHFGGKLHLGFIQIREKLDQLRKTVAEKQEKRNQDRLRRREEREREERLGRRSGSRTRDRRRSRSRDRRRRRSRSTSRERRKFSRSRSRDRYRRHRSRSRSHSRGHRRASRDRSTKYKFSRERSLREESWEYGRNERGPTDWRLENSNGKTASRRSEEKEAGEI
B4: Ddx6 (protein, UniProt P54823 1-483, looked up)
Probable ATP-dependent RNA …: MSTARTENPVIMGLSSQNGQLRGPVKASAGPGGGGTQPQPQLNQLKNTSTINNGTPQQAQSMAATIKPGDDWKKTLKLPPKDLRIKTSDVTSTKGNEFEDYCLKRELLMGIFEMGWEKPSPIQEESIPIALSGRDILARAKNGTGKSGAYLIPLLERLDLKKDNIQAMVIVPTRELALQVSQICIQVSKHMGGAKVMATTGGTNLRDDIMRLDDTVHVVIATPGRILDLIKKGVAKVDHVQMIVLDEADKLLSQDFVQIMEDIILTLPKNRQILLYSATFPLSVQKFMNSHLQKPYEINLMEELTLKGVTQYYAYVTERQKVHCLNTLFSRLQINQSIIFCNSSQRVELLAKKISQLGYSCFYIHAKMRQEHRNRVFHDFRNGLCRNLVCTDLFTRGIDIQAVNVVINFDFPKLAETYLHRIGRSGRFGHLGLAINLITYDDRFNLKSIEEQLGTEIKPIPSNIDKSLYVAEYHSEPAEDEKP
B5: Rbmx2 (protein, UniProt Q8R0F5 1-326, looked up)
RNA-binding motif protein, …: MNPLTKVKLINELNEREVQLGVAEKVSWHSEYKHSAWIFVGGLPYELTEGDIICVFSQYGEIVNINLVRDKKTGKSKGFCFLCYEDQRSTVLAVDNFNGIKIKGRTIRVDHVSNYRAPQESEDVDDVTRELQEKGCGVKTPPSSPPEVSEDEDAKLTKKHKKDKKEKKKRKKEKTEGQAQAEQPSCSRSATVKEKKDERASRKHSSKTSERAQKSEHRESKKSHSGSPDGRSSYHARAEDPECKARKEKPKHEHKSASRREAEEKSRERERGRSSGTHSGRHRGHSDGRSHRSRSRSRSPDKSHRHKKYRHSRERDSYHGSDRRHH
B6: Wbp11 (protein, UniProt Q923D5 1-641, looked up)
WW domain-binding protein 11: MGRRSTSSTKSGKFMNPTDQARKEARKRELKKNKKQRMMVRAAVLKMKDPKQIIRDMEKLDEMEFNPVQQPQLNEKVLKDKRKKLRETFERILRLYEKENPDIYKELRKLEVEYEQKRAQLSQYFDAVKNAQHVEVESIPLPDMPHAPSNILIQDIPLPGAQPPSILKKTSAYGPPARAVSILPLLGHGVPRLPPGRKPPGPPPGPPPPQVLQMYGRKVGFALDLPPRRRDEDMLYSPELAQRGHDDDMSSTSEDDGYPEDMDQDKHDDSTEDSDTDRSDAESDGDEFGHREDSERDNTEEKKSGLSVRFADMPGKSRKKKKNMKELTPLQAMMLRMAGQEIPEEGREVEEFSEEEDADDSDDSEAEKQSQKQHKDDGHSDSTAAASSQQQAPPQSAPASQIQAPPMPGPPPLGPPPAPPLRPPGPPTGLPPGPPPGAPPFLRPPGMPGIRGPLPRLLPPGPPPGRPPGPPPGPPPGLPPGPPPRGPPPRLPPPAPPGIPPPRPGMMRPPLVPPLGPAPPGLFPPAPLPNPGVLSAPPSLIQRPKADDASAATIEKKATATISAKPQITNPKAEVTRFVPTALRVRRENKGATAVPQRRSEDDSAVPVAKAAPRSGPSVAVSVQTKDDVYEAFMKEMEGLL
B7: Sf3b2 (protein, UniProt Q3UJB0 1-878, looked up)
Splicing factor 3B subunit 2: MAAEHPEPPKGELQLPPPPPPGHYGAWAAQELQARLAEIGAPIQGSREELVERLQTYTRQTGIVLNRPVLRGEDGDKAAPPPMSAQLSGIPMPPPPMGLPPLQPPPPPPPPPPGLGLGFPMAHPPNLGPPPPLRVGEPVALSEEERLKLAQQQAALLMQQEERAKQAAVLMEQERQQEIAKMGTAVPRPPQDMGQLGVRTPLGPRVAAPVGPVVPTPTVLPMGAPVPRPRGPPPPPGDENREMDDPSVGPKIPQALEKILQLKESRQEEMNSQQEEEEMETDTRSSLGQSASETEEDTVSISKKEKNRKRRNRKKKKKPQRVRAASSESSGDREKDSGRSRGSDPPAADVEIEYVTEEPEIYEPNFIFFKRIFEAFKLTDDVKKEKEKEPEKLDKMESSAVPKKKGFEEEHKDSDDDSSDDEQEKKPEAPKLSKKKLRRMNRFTVAELKQLVARPDVVEMHDVTAQDPKLLVHLKATRNSVPVPRHWCFKRKYLQGKRGIEKPPFELPDFIKRTGIQEMREALQEKEEQKTMKSKMREKVRPKMGKIDIDYQKLHDAFFKWQTKPKLTIHGDLYYEGKEFETRLKEKKPGDLSDELRISLGMPVGPNAHKVPPPWLIAMQRYGPPPSYPNLKIPGLNSPIPESCSFGYHAGGWGKPPVDETGKPLYGDVFGTNAAEFQTKTEEEEIDRTPWGELEPSDEESSEEEEEEESDEDKPDETGFITPADSGLITPGGFSSVPAGMETPELIELRKKKIEEAMDGSETPQLFTVLPEKRTATVGGAMMGSTHIYDMSTVMSRKGPAPELQGVEVALAPEELELDPMAMTQKYEEHVREQQAQVEKEDFSDMVAEHAAKQKQKKRKAQPQDSRGGSKKYKEFKF

One experiment has as its target T1, nSR100. In words: AP-MS nSR100 interaction partners from mouse N2A cells (Table 5). The format is binding. To be noted: bait Srrm4.
From the text: By applying affinity purification coupled to mass-spectrometry (AP-MS), several interaction nSR100 partner proteins were detected that provide insight into mechanisms of post-translational regulation of nSR100 levels.
Turning to B1, the “AvgP (average of the SAINT scores)” value amounted to 0.97 and the “MaxP (maximal SAINT score)” value came to 0.99.

Consider B2, for which the “AvgP (average of the SAINT scores)” value stood at 0.97 and the “MaxP (maximal SAINT score)” value was 1.

For the molecule B3, the “AvgP (average of the SAINT scores)” value was 0.95 and the “MaxP (maximal SAINT score)” value is given as 0.99.

For B4, the “AvgP (average of the SAINT scores)” value stood at 0.97 and the “MaxP (maximal SAINT score)” value came out at 1.

For the molecule B5, the “AvgP (average of the SAINT scores)” value worked out at 0.96 and the “MaxP (maximal SAINT score)” value turned out to be 0.98.

Consider B6, for which the “AvgP (average of the SAINT scores)” value was 0.97 and the “MaxP (maximal SAINT score)” value is reported as 0.99.

B7: the “AvgP (average of the SAINT scores)” value was 0.96 and the “MaxP (maximal SAINT score)” value is recorded as 0.96.

The experiment is the same for the next values; noted with them: bait Srrm4, 0.1 added to prevent division by 0.
Regarding B1, the “FoldChange between the prey Avg spectra of the bait and control purifications” value (shortened to “FoldChange between the prey Avg spectra”) is given as 25.

Regarding B2, the “FoldChange between the prey Avg spectra” value amounted to 30.

Regarding B3, the “FoldChange between the prey Avg spectra” value amounted to 3.17.

Turning to B4, the “FoldChange between the prey Avg spectra” value came to 30.

Take B5: the “FoldChange between the prey Avg spectra” value is given as 9.

Consider B6, for which the “FoldChange between the prey Avg spectra” value is listed as 25.

Take B7: the “FoldChange between the prey Avg spectra” value amounted to 3.08.

The experiment is the same for the next values; noted with them: bait Srrm4, 2 replicates.
For B1, the “AvgSpec (average number of spectra per replicate)” value turned out to be 2.5.

In the case of B2, the “AvgSpec (average number of spectra per replicate)” value turned out to be 3.

Turning to B3, the “AvgSpec (average number of spectra per replicate)” value is listed as 19.

Turning to B4, the “AvgSpec (average number of spectra per replicate)” value worked out at 3.

With B5, the “AvgSpec (average number of spectra per replicate)” value worked out at 4.5.

For the molecule B6, the “AvgSpec (average number of spectra per replicate)” value came to 2.5.

With B7, the “AvgSpec (average number of spectra per replicate)” value was 20.

The experiment is the same for the next values; noted with them: bait Srrm4, biological replicate 1 (first number of the cell), AP-MS.
As to B1, the “Spectra (number of spectra for the prey in the purification of the bait)” value came to 2.

As for B2, the “Spectra (number of spectra for the prey in the purification of the bait)” value is on record as 2.

Consider B3, for which the “Spectra (number of spectra for the prey in the purification of the bait)” value is on record as 18.

In the case of B4, the “Spectra (number of spectra for the prey in the purification of the bait)” value is 2.

As to B5, the “Spectra (number of spectra for the prey in the purification of the bait)” value is given as 4.

Take B6: the “Spectra (number of spectra for the prey in the purification of the bait)” value was 2.

With B7, the “Spectra (number of spectra for the prey in the purification of the bait)” value is given as 20|20.

Still in this experiment, the particulars now being: bait Srrm4, biological replicate 2 (second number of the cell), AP-MS.
B1: the “Spectra (number of spectra for the prey in the purification of the bait)” value worked out at 3.

B2: the “Spectra (number of spectra for the prey in the purification of the bait)” value was 4.

As for B3, the “Spectra (number of spectra for the prey in the purification of the bait)” value came out at 20.

B4: the “Spectra (number of spectra for the prey in the purification of the bait)” value is listed as 4.

B5: the “Spectra (number of spectra for the prey in the purification of the bait)” value was 5.

As to B6, the “Spectra (number of spectra for the prey in the purification of the bait)” value stood at 3.

With B7, the “Spectra (number of spectra for the prey in the purification of the bait)” value is 20|20.

Still in this experiment, the particulars now being: bait Srrm4, sum of spectra over 2 replicates.
B1 returned a SpecSum of 5.

Molecule B2 displayed a SpecSum of 6.

The molecule B3 came in with a SpecSum of 38.

With B4, the SpecSum was 6.

Turning to B5, the SpecSum turned out to be 9.

In the case of B6, the SpecSum is 5.

Molecule B7 returned a SpecSum of 40.

Values taken from patent US10772928B2, “Modulation and detection of a neuronal alternative splicing regulatory network for treatment and diagnosis of neurological disorders” (The Governing Council of the University of Toronto, priority 2014, dated 2020).
